Results on one molecule are retold here after paper PMC8259413.

The target of the data set is DNA polymerase beta (Pol β) (rat, UniProt P06766 1-335). The data set can be described thus: NMR chemical shift titration.

B1: 20-mer single-nucleotide gapped DNA (templating G) (dsDNA)
DNA 1: CGACCGACGGCGCATCAGCC
DNA 2: GGCTGATGCGC
DNA 3: GTCGGTCG
modifications: 5'-phosphate on downstream strand
As to B1, the binding result was “binds”.
